Measurements from patent publication US20080249606A1.

Molecular target: endostatin incubated overnight with DXS500k (human) (UniProt P39060)
Test: ELISA, protein/DXS500k mixture immobilized on Greiner Microlon plate, tPA in 10 mM εACA, detection with antibody 374b

Chain of endostatin incubated overnight with DXS500k (human) (P39060 1572-1754): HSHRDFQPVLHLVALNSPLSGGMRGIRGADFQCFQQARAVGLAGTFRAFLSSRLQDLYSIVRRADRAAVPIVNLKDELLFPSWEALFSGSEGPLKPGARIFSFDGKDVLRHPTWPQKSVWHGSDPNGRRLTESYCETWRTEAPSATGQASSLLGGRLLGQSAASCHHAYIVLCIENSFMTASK
Chain of tissue-type plasminogen activator (tPA, Actilyse, Boehringer-Ingelheim) (P00750 36-562 limits assumed): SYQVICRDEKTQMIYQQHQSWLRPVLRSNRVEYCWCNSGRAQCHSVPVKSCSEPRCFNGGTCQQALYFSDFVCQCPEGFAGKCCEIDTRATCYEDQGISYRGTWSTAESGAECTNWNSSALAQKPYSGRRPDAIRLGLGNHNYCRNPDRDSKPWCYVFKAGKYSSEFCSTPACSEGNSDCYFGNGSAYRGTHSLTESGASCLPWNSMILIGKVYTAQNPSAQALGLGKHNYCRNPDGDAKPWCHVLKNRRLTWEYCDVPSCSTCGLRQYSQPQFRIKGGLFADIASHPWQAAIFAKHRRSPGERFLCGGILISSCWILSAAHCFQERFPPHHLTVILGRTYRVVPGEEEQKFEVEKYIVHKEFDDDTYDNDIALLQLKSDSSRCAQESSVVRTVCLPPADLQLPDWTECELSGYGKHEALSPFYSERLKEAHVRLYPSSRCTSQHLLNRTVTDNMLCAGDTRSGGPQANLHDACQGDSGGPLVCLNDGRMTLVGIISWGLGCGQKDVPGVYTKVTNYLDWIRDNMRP

tissue-type plasminogen activator (tPA, Actilyse, Boehringer-Ingelheim) (from UniProt P00750 36-562) (enzyme)
factor of increase of tPA binding against the protein incubated with buffer only: 10.5 fold
